These results are taken from PMC5018458 (Bioorganic & medicinal chemistry letters, 2016).

One data set concerns M21 human melanoma cells. In words: Cellular efflux in M21 human melanoma cells. Conditions: M21 cells loaded 2 h at 37 °C, then 2 h of incubation in the culture medium. It counts as cell-based.
The next data set concerns B16/F1 melanoma. Conditions: 2 h post-injection; cited from earlier work.
In data set [1] the test system is M21 human melanoma-xenografted nude mice. In words: Biodistribution in M21 human melanoma-xenografted nude mice. It counts as in vivo. (In general: Xenograft models place foreign cells or tissue in a host animal.)
The test system of data set [2] is M21 human melanoma xenografts. In words: SPECT/CT imaging of M21 human melanoma-xenografted nude mouse. The note with it: about 7.4 MBq iv tail vein, 2 h post-injection. The class given is in vivo.

With “hydrazinonicotinamide-8-aminooctanoic acid-Nle-c[Asp-His-DPhe-Arg-Trp-Lys]-CONH2 (sidechain bridge or staple) [^99mTc(EDDA)-HYNIC-AocNle-CycMSHhex]”, the “Activity remained inside the cells (cellular efflux)” value in the data set with M21 human melanoma cells is 66%. For the same substance, the “Visualization of B16/F1 melanoma lesions by SPECT/CT” value in the data set on B16/F1 melanoma is given as “clearly visualized”. Further, the “Uptake ratio Tumor/kidney” value in data set [1] (0.5 h post-injection) is recorded as 0.40; in data set [1] (2 h post-injection) it was 0.71; in data set [1] (2 h post-injection, NDP blockade (co-injection of 10 μg NDP-MSH)), 0.17; in data set [1] (4 h post-injection), 0.95; in data set [1] (24 h post-injection), 1.13. Moreover, the “Tumor uptake blocked by co-injection of non-radioactive NDP-MSH” value in data set [1] (2 h post-injection, 10 μg (6.07 nmol) NDP-MSH co-injected) was 80%. In addition, in data set [1] (mouse, in vivo), the “Intestines, percent injected dose” value is on record as 1.65±0.73 %ID. Moreover, the “Urine, percent injected dose (urinary clearance)” value in data set [1] (mouse, in vivo) was determined as 92.23±1.52 %ID. In data set [2], the “Visualization of M21 human melanoma xenografts by SPECT/CT” value is “clearly visualized”.
